{
  "source": "paper PMC10357448",
  "proteins": {"B1": {"name": "Interleukin-4 (IL-4): WT (P. pastoris) (protein)", "parent chain": "MGLTSQLLPPLFFLLACAGNFVHGHKCDITLQEIIKTLNSLTEQKTLCTELTVTDIFAASKNTTEKETFCRAATVLRQFYSHHEKDTRCLGATAQQFHRHKQLIRFLKRLDRNLWGLAGLNSCPVKEANQSTLENFLERLKTIMREKYSKCSS"}},
  "assay": "In vitro trypsin digestion, SDS-PAGE densitometry",
  "conditions": "glycan changed form; control: WT (HEK293), one N-glycan",
  "data": [
    {"protein": "B1", "values": [
      {"measurement": "degradation_or_half_life, half_life", "value": "decreases, 2.6 ± 0.2 vs 4.9 ± 0.7"}
    ]}
  ]
}
